The text below walks through data of the nanobody polyreactivity screen of Harvey et al. (2022).

The data set is described as follows: yeast display, Sf9 membrane polyspecificity reagent, FACS + sequencing; frameworks hold sequencing errors. In a few lines: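 Sorting gates, low and high (top ~1%), were placed on anti-HA fluorescence to track expression and on streptavidin fluorescence to track reagent binding. A clone's polyreactivity label is taken from the gate it came out of. The reagent was 10% biotinylated, detergent-solubilized Sf9 membrane, applied for 1 hour at 4 °C to galactose-induced yeast display cells.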
On to “QVQLVESGGGLVQAGGSLRLSCAASGRIFYYNAMGWYRQAPGKERELVARISSGGSTNYADSVKGRFTISRDNAKNTVYLQMNSLKPEDTAVYYCAVAKGGLAWGVGRAGRYDFWGQGTQVTVSS”, for which the “polyreactivity (PSR sort gate)” value is “low polyreactivity”.

Take “QVQLVESGGGLVQAGGSLRLSCAASGRIFYYNAMGWYRQSPGKEREFVAAISSGGGSTYYADSVKGRFTISRDNAKNTVYLQMNSLKPEDTAVYYCAAKRQFYRGPAQALSGYGYWGQGTQVTVSS”: the “polyreactivity (PSR sort gate)” value is listed as “high polyreactivity”. For “QVQLVESGGGLVQAGGSLRLSCAASGRIFYYNDMGWYRQAPGKERELVAAITWTDDGTYYADSVKGRFTISRDNAKNTVYLQMNSLKPEDTAVYYCAAESFYGFEYWGQGTQVTVSS” the value was “low polyreactivity”; for “QVQLVESGGGLVQAGGSLRLSCAASGRIFYYNPMGWYRQAPAKERELVAAISWDGGSTYYADSVKGRFTISRDNAKNTFYLEMNCLKAEDTAVYYCAVDLYGTWYPTWFNYWGQGTQVTVSS”, “low polyreactivity”; for “QVQLVESGGGLVQAGGSLRLSCAASGRIFYYYAMGGYRQAPWKERELVATISRAGITNYADSVKGRFTISRANAKNTVYLQMNSLKPEDTAVYYCAATFYPWRYHYEYWGQGTQVTVSS”, “high polyreactivity”. To “QVQLVESGGGLVQAGGSLRLSCAASGRIFYYYAMGWSRPAPGTERELVASITFSGGRTFYADSVKGRFTISRDNAKKTVYLQMNSLKPEDTAVYYCAAVRWGRRSGGLVAEYDYWGQGTQVNVSS” belongs “high polyreactivity”. To “QVQLVESGGGLVQAGGSLRLSCAASGRIFYYYAMGWYRQAPGKERELVAAISQRGGRTYYADSVKGRFTISRDNAKNTVYLQMNSLKPEDTAVYYCNDYPVYGRYTHYGYGHWGQGTQVTVSS” belongs “high polyreactivity”; to “QVQLVESGGGLVQAGGSLRLSCAASGRIFYYYAMGWYRQAPGKERELVAAISTDVGGTFYAESVKGRFTISRANAKNTVYLQMNSLKPEDTAVDYCAVEYLWHGDEHDYWGQGTQVTVSS”, “high polyreactivity”; to “QVQLVESGGGLVQAGGSLRLSCAASGRIFYYYAMGWYRQAPGKERELVADITSGGSTNYADSVKGRFTISRDNAKNTVYLQMNSLKPEDTAVYYCAAEYGDVYVWTYDYWGQGTQVTVSS”, “high polyreactivity”. “QVQLVESGGGLVQAGGSLRLSCAASGRIFYYYAMGWYRQAPGKERELVASINSVGTTTYADSVKGRFTISRDNAKNTVYLKMNSLKPEDTAVYYCARDTGCIYYDGYAYDYWGQGTEVTVSS”: the “polyreactivity (PSR sort gate)” value is given as “low polyreactivity”. For “QVQLVESGGGLVQAGGSLRLSCAASGRIFYYYGMGWYRQAPGKERELVAAISNGGRTYYADSVKGRFTISRDNAKNTVYLQMNSLKPEDTAVYYCAALTRGRGGYDYWGLGTQVTVSS” the value was “high polyreactivity”; for “QVQLVESGGGLVQAGGSLRLSCAASGRIFYYYVMGWYRQAPGKEREFVAAISWSASNTYYADSVKGRFTISRDNAKNTVYLQMNSLKPEDTAVYYCAADTLWLDWQGYDYWGQGTQVTVSS”, “low polyreactivity”; for “QVQLVESGGGLVQAGGSLRLSCAASGRIGKYAMGWYRQAPGKERELVAAITSGGSTTYADSVKGRITISRDNAKNTVYLQMNSLNPEDTAVYYCKALRRARYTRKGYEYWGQGTQVTVSS”, “high polyreactivity”. For “QVQLVESGGGLVQAGGSLRLSCAASGRIGTNAMGCYRQAPGKERELVAAISKRGGSTHYADSVKGRFTISRDNAKNTVYLQMNSMKPEDTAVYYCAASRAVGYDYWGQGTEVTVSS”, the “polyreactivity (PSR sort gate)” value is recorded as “high polyreactivity”.

On to “QVQLVESGGGLVQAGGSLRLSCAASGRIGTYAMGWYRQAPGKERELVAGIRSGGSTYYADSVKGRFTISRDNAKNTVYLQLNSLKPEDTAVYYCAADRGYRGATGKYDSWGQGTQVTVSS”, for which the “polyreactivity (PSR sort gate)” value is on record as “high polyreactivity”. For the sequence “QVQLVESGGGLVQAGGSLRLSCAASGRIIARYTMGWYRQAPGKERELVAAITRGSSTYYADSVKGRFTISRDNALNTVFLHMNSQKPEDTAVNYCAKVYVVKSRYVYWGKGTQVTVSS”, the “polyreactivity (PSR sort gate)” value is listed as “low polyreactivity”. With “QVQLVESGGGLVQAGGSLRLSCAASGRIIDANVMGWYRQAPGKERELVAAISASAGSTSYADSVKGRFTISRDNAKNTVYLQMNSLKPEDTAVYYCAADPYQLWHYYYFGMDYWGQGTQVTVSS”, the “polyreactivity (PSR sort gate)” value is listed as “low polyreactivity”. To “QVQLVESGGGLVQAGGSLRLSCAASGRIIDTYAMGWYRQAPGKERELFASISRSDTSTSYADSVKGRFTISRDNAKNTVYLQMNCLKPEDTAVYYCNKDGVTVTNSKRYDYLGQGTQVTVSS” belongs “low polyreactivity”. Take “QVQLVESGGGLVQAGGSLRLSCAASGRIIFIYAMGWYRQPPGKERELVAGINRTGGSTYYADSVKGRFTISRDNAKNTVYLQMNSLKPEDTAVYYCAAVSYYASDYRYDYWGQGTQVTVSS”: the “polyreactivity (PSR sort gate)” value is listed as “low polyreactivity”. For “QVQLVESGGGLVQAGGSLRLSCAASGRIIGAYAMGWYRQAPGKERELVAAITSRGGNTYYADSVKGRITISRDNAKNTVYFQMNSLKPEDTAVYYCAAGVRAYNWCEYDYWGQGTQVTVSS” the value was “low polyreactivity”; for “QVQLVESGGGLVQAGGSLRLSCAASGRIIGRYVRGWYRQAPGKERELVAAITRGGSTNYADSVKGRYTISRDNAKNTVYLQMNSLKPEDTAVYYCARAYSTVNRYSMYYWGQGTQVTVSS”, “high polyreactivity”; for “QVQLVESGGGLVQAGGSLRLSCAASGRIIGTNAMGWYRQAPGKEREMVAAITWRGGSTYYADSVKGRFTYSRDNAKNTVYLQKNSLKPEDTAVYYCNKDPPRFSGLDENDWGQGTQVTVSS”, “low polyreactivity”. Take “QVQLVESGGGLVQAGGSLRLSCAASGRIIGYNAMGWYRQAPGKERELVAAIDYTGGSTYYADSVKGRFTISLDNAKNTVYLQMNSLKPEDTAVYYCAKDRTTPWEEDDYWGQGTQVTVSS”: the “polyreactivity (PSR sort gate)” value is given as “low polyreactivity”. To “QVQLVESGGGLVQAGGSLRLSCAASGRIIIEYAMGWYRQAPGKERELVASITSSGGRTTFADSVKGRFTISRDNAKNTVYLQMNSLKPEDTSVYYCAAKYYWYYSYSGIPLFDYWGQGTQVTVSS” belongs “low polyreactivity”; to “QVQLVESGGGLVQAGGSLRLSCAASGRIIKTNAMGWYRQAPGKERELVAAISSSGGRTYYADSVKGRFTISRDNAKNTVYLQMNSLKPEDTAVYYCAAPSLVSFGYWGQGTQVTVSS”, “high polyreactivity”; to “QVQLVESGGGLVQAGGSLRLSCAASGRIIKVYAMAWYRQAPGKDRELVAAISSRGGSTYYADSVKGRFTISRDNAKNTVYLQMNSVKPEDTAVYYCAALVTWLHPKGDYWGQGTQVTVSS”, “low polyreactivity”. For “QVQLVESGGGLVQAGGSLRLSCAASGRIILVYAMGWYRQAPGKEREVVAAISSGGSTYYADSVKGRFTISRDTAKNPVYLQMNSLKPDDTAVYYSAARTAVGPIRSYWYDYWGQGTQVTVSS” the value was “low polyreactivity”. With “QVQLVESGGGLVQAGGSLRLSCAASGRIIPLNAMGWYRPAPGKERELVAAISYDGCTYYADSVKGRFTISRDNAKNTVYLQMNSVKPEDTAVYYCAARGSYRGPYNVEYDSWGQGTQVTVSS”, the “polyreactivity (PSR sort gate)” value was “low polyreactivity”. Take “QVQLVESGGGLVQAGGSLRLSCAASGRIIPRNAMGWYRQEPGKERELVAGISRGGSTYYADSVKGRFTISRDNAKNSVYLQMNSLKPEDTAVYYCAAAYQKSPITPNMDYWGQGTQVTVSS”: the “polyreactivity (PSR sort gate)” value was “low polyreactivity”. Take “QVQLVESGGGLVQAGGSLRLSCAASGRIIRSYAMVWYRQAPGKERELVAAISYSGGSTYYADSVKGRFTISRDNAKNTVYLQMNSLKPEDTAVYYCAALPGERKYIYYGYDYWGQGTQVTVSS”: the “polyreactivity (PSR sort gate)” value was “high polyreactivity”. For the sequence “QVQLVESGGGLVQAGGSLRLSCAASGRIISNYAMGWYRQAPGNERELVAAITVIGGRTYYADSVKGRFTISRDNAKNTVYLQMNSLKPEDTAVYYCNAEEYWYDGFYWLSYDYWGQGTQVTVSS”, the “polyreactivity (PSR sort gate)” value is listed as “high polyreactivity”. On to “QVQLVESGGGLVQAGGSLRLSCAASGRIISYNDMGWYRPAPGKERELVAAISWGGGSTYYADSVKGRFTISRDNAKNTVYLQMNSLKPEDTAVYYCSKGWYRIKRNDYWGQGTQVTVSS”, for which the “polyreactivity (PSR sort gate)” value was “low polyreactivity”. To “QVQLVESGGGLVQAGGSLRLSCAASGRIITRNVMGWYRQAPGKERELVAAISTSGGSTFYADSVKGRFTISRDNAKKTVYLQMNSLKPEDTAVYYCAKRRYGKLEFWGQGTQVTVSS” belongs “high polyreactivity”; to “QVQLVESGGGLVQAGGSLRLSCAASGRIITYYAMGWYRQAPGKERELVAAISRTGGTTYYADSVKGRFTISRDNAKNTVYLQMNSLKPEDTAVYYWNAVKAPYLRYDYWGQGTQVTVSS”, “high polyreactivity”; to “QVQLVESGGGLVQAGGSLRLSCAASGRIITYYAMGWYRQAPGKERELVAAITASGSRTYYADSVKGRFTISRDTAKNTVYLQMNSLKPEDTAVYYCAALSRLSPLSGSYYWGQGTQVTVSS”, “high polyreactivity”. Turning to “QVQLVESGGGLVQAGGSLRLSCAASGRIIWANTMGCYRQAPGKEREFVAAISWSTDSTYYADSVKGRFTISRDNAKNTVYFQMNSLKPEDTAVYYCNARAGYPWGVFYVTYVYWGQGTQVTVSS”, the “polyreactivity (PSR sort gate)” value is given as “low polyreactivity”.

On to “QVQLVESGGGLVQAGGSLRLSCAASGRIIWSNTMGWYRQAPGKESELVAASSGRGGSTYYADSVKGRFTISRDNAKNTVYLQMNSLKPEDTAVYYCAAKPTRSRKIYEYWGQGTQVTVSS”, for which the “polyreactivity (PSR sort gate)” value is reported as “low polyreactivity”. In the case of “QVQLVESGGGLVQAGGSLRLSCAASGRIIYAYAMGWYRQTPGKERELVAAISTRGGTTYYADSVKGRFTISRDNAKNTVYLQMNSLKPEDTAVYYCNALRVSRRVGYDSWGKGTQVTVSS”, the “polyreactivity (PSR sort gate)” value is given as “high polyreactivity”.

Turning to “QVQLVESGGGLVQAGGSLRLSCAASGRIIYKNAMGWYRQAPGKETELVAAINSSGGSTYYGDSVKGRFTISRDNAKNTVYLQMNCLKPEDSAVYYCAAYDYGRFGKLNYWGQGSQVTVSS”, the “polyreactivity (PSR sort gate)” value is given as “low polyreactivity”. In the case of “QVQLVESGGGLVQAGGSLRLSCAASGRIIYRNAMGWSRQSPGKEREMVATITKNGGATYYADSVKGRFTISRDNAKNTVYLQMNTLKPEDTAVYYCATGSRGYKASPQWRDYWGQGTQVTVSS”, the “polyreactivity (PSR sort gate)” value is “high polyreactivity”. For “QVQLVESGGGLVQAGGSLRLSCAASGRIIYTYALGWYRQAPGKERELVAAISWSGGSTYYADSVKGRFTISRDNAKNTVYLQMNSLKREDTAVYYCNAAYYGYENLSKRGYWGQGTQVTVSS” the value was “high polyreactivity”.
